Like-named read-outs stand apart in the source and are kept apart here.
T1: endogenous TL1A of stimulated human peripheral blood (human, UniProt O95150 72-251, limits assumed)
T1 sequence (looked up): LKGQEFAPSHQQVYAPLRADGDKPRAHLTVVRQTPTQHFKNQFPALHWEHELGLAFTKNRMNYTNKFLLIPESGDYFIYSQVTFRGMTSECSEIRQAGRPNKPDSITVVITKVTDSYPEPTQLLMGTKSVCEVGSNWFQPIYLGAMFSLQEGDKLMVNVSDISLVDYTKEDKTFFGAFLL

T2: recombinant soluble cynomolgus monkey TL1A (cynomolgus monkey, UniProt O95150 72-251 (human entry))
T2 construct: also called cyno rsTL1A; cyno TL1A
T2 chain: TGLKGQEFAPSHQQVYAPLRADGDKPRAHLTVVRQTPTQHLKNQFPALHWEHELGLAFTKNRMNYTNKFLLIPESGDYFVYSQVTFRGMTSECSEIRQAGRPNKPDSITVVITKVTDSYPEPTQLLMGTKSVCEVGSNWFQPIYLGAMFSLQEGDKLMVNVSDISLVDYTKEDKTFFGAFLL

T3: recombinant soluble murine TL1A (mouse, UniProt Q5UBV8 75-252)
T3 construct: also called murine rsTL1A; mouse TL1A
T3 chain: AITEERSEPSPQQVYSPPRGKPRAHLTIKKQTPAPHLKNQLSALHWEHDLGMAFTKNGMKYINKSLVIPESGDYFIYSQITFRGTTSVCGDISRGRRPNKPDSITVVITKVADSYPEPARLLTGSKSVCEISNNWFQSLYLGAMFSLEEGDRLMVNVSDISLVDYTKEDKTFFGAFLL

T4: recombinant soluble rat TL1A (rat, UniProt Q8K3Y7 76-252)
T4 construct: also called rat rsTL1A
T4 sequence: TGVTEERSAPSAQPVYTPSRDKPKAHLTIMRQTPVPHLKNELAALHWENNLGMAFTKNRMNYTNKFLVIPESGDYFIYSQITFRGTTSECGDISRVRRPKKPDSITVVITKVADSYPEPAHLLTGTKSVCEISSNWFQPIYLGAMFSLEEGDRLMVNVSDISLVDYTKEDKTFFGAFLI

T5: recombinant soluble rabbit TL1A (rabbit)
T5 construct: also called rabbit rsTL1A
T5 chain: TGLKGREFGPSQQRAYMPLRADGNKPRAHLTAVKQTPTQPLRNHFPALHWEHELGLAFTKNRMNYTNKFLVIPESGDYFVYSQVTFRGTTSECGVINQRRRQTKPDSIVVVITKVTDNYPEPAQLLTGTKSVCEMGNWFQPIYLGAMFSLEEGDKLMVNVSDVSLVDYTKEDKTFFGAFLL

T6: recombinant soluble human TL1A (human, UniProt O95150 71-251)
T6 construct: Homotrimer, expressed in HEK293 and purified over HitrapNTA; no tag is described; Used biotinylated in the HTRF assay and in flow cytometry; also called rsTL1A; hTL1A
T6 sequence: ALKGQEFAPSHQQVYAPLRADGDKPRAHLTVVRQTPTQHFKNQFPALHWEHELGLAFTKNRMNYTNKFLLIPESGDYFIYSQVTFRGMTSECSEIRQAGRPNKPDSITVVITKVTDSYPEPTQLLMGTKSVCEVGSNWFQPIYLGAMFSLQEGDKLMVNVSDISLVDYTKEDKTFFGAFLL


Key:
[1] = molecular target: T1, endogenous TL1A of stimulated human …; experiment: cell-based or functional assay
[2] = molecular target: T2, recombinant soluble cynomolgus monkey …; experiment: KinExA, equilibrium in solution
Description: (§1) This assay involves pre-incubating antibody: antigen mixtures in solution long enough to reach equilibrium before measuring the level of unbound antibody using a solid phase component. […] Beads were blocked for 1 hour with PBS plus 10 mg/ml bovine serum albumin (bovine serum albumin, Sigma) at room temperature before being diluted up to a total of 27 ml in PBS. […] For each titration series, a buffer sample and a sample of antibody alone were included. Each antibody: TL1A mixture was tumbled at room temperature for at least six hours to reach equilibrium and then each mixture was injected over the solid phase of TL1A-coated beads in the instrument flow cell. […] Beads were replenished between each sample. Binding signals of detected free antibody were converted to percentage of free, unbound antibody as measured by the antibody only sample and plotted versus each concentration of TL1A. For each antibody, the KD and ABC controlled curves were fit simultaneously using n-Curve Analysis software v3.1.4 to fit the curves to the ‘affinity, unknown ligand’ model and measure an equilibrium KD.
(§2) Solution-based kinetic exclusion assays (KinExA) were carried out as an orthogonal technique to measure equilibrium KD values.

[3] = molecular target: T3, recombinant soluble murine TL1A; experiment: KinExA, equilibrium in solution
Description: as §1, §2

[4] = molecular target: T2, recombinant soluble cynomolgus monkey …; experiment: SPR, IgG captured on anti-hIgG, TL1A injected;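 on t1/2: biacore surface plasmon resonance on a dextran sensor chip, double-referenced sensorgrams fitted to a one-to-one binding model, KD taken as dissociation over association rate constant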
Excerpt: To characterize the binding kinetics of the anti-TL1A antibodies to TL1A by surface plasmon resonance, each anti-TL1A antibody was captured via directly immobilized anti-human IgG (GE Healthcare) onto a carboxymethylated dextran sensor chip surface (CM5) using a Biacore T100 or T200 instrument. Anti-human IgG was immobilized through amine coupling to densities of approximately 4,000-13,000 response units (RU). […] At the end of each cycle, the entire anti-human IgG (hIgG) surface was regenerated by a 30-second pulse of 3M MgCl₂ followed by two consecutive 15-second pulses of PBS-NET. All injections were performed at 25° C. at a collection rate of 10 Hz. All sensorgrams were double referenced by using both a control surface and buffer injections. Rate constants were determined by fitting the data to a 1:1 model in Biacore T100, T200 evaluation software v1.0, or BIAevaluation software v4.1.1 and the equation KD=kd/kₐ.
The anti-TL1A antibodies were captured onto immobilized anti-human Fc on a CM5 sensor chip on a Biacore T100 instrument. […] Rate constants shown in the table were determined by fitting to a 1:1 Langmuir binding model in BiaEvaluation v4.1.1 (fit lines shown in red). Data shown are the average and standard deviation of at least 3 independent surfaces between 2 experiments.

[5] = molecular target: T2, recombinant soluble cynomolgus monkey …; experiment: SPR, IgG captured on anti-hIgG, TL1A injected;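 on t1/2: biacore surface plasmon resonance on a dextran sensor chip, double-referenced sensorgrams fitted to a one-to-one binding model, KD taken as dissociation over association rate constant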
[6] = molecular target: T3, recombinant soluble murine TL1A; experiment: SPR, IgG captured on anti-hIgG, TL1A injected;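 on koff: biacore measurement on a carboxymethylated dextran chip, double-referenced against a control surface and buffer, rates fitted to a one-to-one binding model, KD from koff over kon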;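 on kon: biacore measurement on a carboxymethylated dextran chip, double-referenced against a control surface and buffer, rates fitted to a one-to-one binding model, KD from koff over kon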
[7] = molecular target: T2, recombinant soluble cynomolgus monkey …; experiment: SPR, IgG captured on anti-hIgG, TL1A injected;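 on t1/2: biacore surface plasmon resonance on a dextran sensor chip, double-referenced sensorgrams fitted to a one-to-one binding model, KD taken as dissociation over association rate constant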
Excerpt: (§3) The antibodies were captured via directly immobilized anti-human IgG (GE Healthcare) onto a carboxymethylated dextran sensor chip surface (CM5) using a Biacore T100 or T200 instrument. Anti-human IgG was immobilized through amine coupling to densities of approximately 4,000-13,000 response units (RU). […] At the end of each cycle, the entire anti-hIgG surface was regenerated by a 30-second pulse of 3M MgCl₂ followed by two consecutive 15-second pulses of PBS-NET. […] All injections were performed at 25° C. at a collection rate of 10 Hz. All sensorgrams were double referenced by using both a control surface and buffer injections. Rate constants were determined by fitting the data to a 1:1 model in Biacore T100, T200 evaluation software v1.0, or BIAevaluation software v4.1.1 and the equation KD=Kd/kₐ.
(§4) At the highest cytokine concentrations, the dissociation phase was sometimes extended to 60 minutes to achieve at least a 5% decrease in binding signal.

[8] = molecular target: T3, recombinant soluble murine TL1A; experiment: SPR, IgG captured on anti-hIgG, TL1A injected;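 on koff: biacore measurement on a carboxymethylated dextran chip, double-referenced against a control surface and buffer, rates fitted to a one-to-one binding model, KD from koff over kon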;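 on kon: biacore measurement on a carboxymethylated dextran chip, double-referenced against a control surface and buffer, rates fitted to a one-to-one binding model, KD from koff over kon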
[9] = molecular target: T4, recombinant soluble rat TL1A; experiment: SPR, IgG captured on anti-hIgG, TL1A injected
Excerpt: as §3, §4

[10] = molecular target: T5, recombinant soluble rabbit TL1A; experiment: SPR, IgG captured on anti-hIgG, TL1A injected
Excerpt: as §3, §4

[11] = molecular target: T6, recombinant soluble human TL1A; experiment: binding test of the 1D1 point mutants, method not named
[12] = molecular target: T6, recombinant soluble human TL1A; experiment: cell-based or functional assay
[13] = molecular target: T6, recombinant soluble human TL1A; experiment: KinExA, equilibrium in solution
Description: as §1, §2

[14] = molecular target: T6, recombinant soluble human TL1A; experiment: SPR, IgG captured on anti-hIgG, TL1A injected; off rate too slow to measure

Binder	HWB Assay, average IC50 [1] [nM]	Kd [7] [nM]	koff [7] [s⁻¹]	kon [7] [M⁻¹ s⁻¹]	t1/2 [7] [min]	Kd [8] [nM]	koff [8] [s⁻¹]	kon [8] [M⁻¹ s⁻¹]	t1/2 [8] [min]	Kd [9] [nM]	koff [9] [s⁻¹]	kon [9] [M⁻¹ s⁻¹]	t1/2 [9] [min]	Kd [10] [nM]	koff [10] [s⁻¹]	kon [10] [M⁻¹ s⁻¹]	t1/2 [10] [min]	Kd [11] [nM]	other results
anti-TL1A antibody 1D1 (antibody, human IgG1, kappa, V domains shown, Human IgG1 with effector-null triple mutation (hIgG1-3m), kappa; The first binning was done with the antibodies from the hybridoma screen; also called 1D1 parental; Parental 1D1) VH: QVQLVQSGAEVKKPGASVKVSCKASGYSFTYYGISWVRQAPGQGLEWMGWISTYNGNTNYARMLQGRVTMTTDTSTRTAYMELRSLRSDDTAVYYCARENYYGSGSYRGGMDVWGQGTTVTVSS VL: EIVLTQSPATLSLSPGERATLSCRASQSVSSYLAWYQQKPGQAPRLLIYDASNRATGIPARFSGSGSGTDFTLTISSLEPEDFAVYYCQQRSNWPWTFGQGTKVEIKR	0.248	6.69	0.0041	600000	2.82	7.29	0.0036	490000	3.25	8.14	0.0134	1.71e+06	0.867	1.31	0.00079	610000	14.6	–	Kd [2]: 0.384 nM; Kd [3]: 0.383 nM; Kd [4]: 7 nM; koff [4]: 0.0041 s⁻¹; kon [4]: 600000 M⁻¹ s⁻¹; Kd [5]: 1.67 nM; Kd [6]: 1.32 nM
1D1 with heavy chain mutation S28D (antibody, V domains shown, Point mutant of 1D1 CDR-H1) VH: QVQLVQSGAEVKKPGASVKVSCKASGYDFTYYGISWVRQAPGQGLEWMGWISTYNGNTNYARMLQGRVTMTTDTSTRTAYMELRSLRSDDTAVYYCARENYYGSGSYRGGMDVWGQGTTVTVSS VL: EIVLTQSPATLSLSPGERATLSCRASQSVSSYLAWYQQKPGQAPRLLIYDASNRATGIPARFSGSGSGTDFTLTISSLEPEDFAVYYCQQRSNWPWTFGQGTKVEIK	–	–	–	–	–	–	–	–	–	–	–	–	–	–	–	–	–	0.42	–
1D1 1.27 (antibody, human IgG1, kappa, V domains shown, Expressed as IgG1) VH: QVQLVQSGAEVKKPGASVKVSCKASGYDFTYYGISWVRQAPGQGLEWMGWISTYNGNTHYARMLQGRVTMTTDTSTRTAYMELRSLRSDDTAVYYCARENYYGSGSYRGGMDVWGQGTTVTVSS VL: EIVLTQSPATLSLSPGERATLSCRASQSVSSYLAWYQQKPGQAPRLLIYDASNRATGIPARFSGSGSGTDFTLTISSLEPEDFAVYYCQQRSNWPWTFGQGTKVEIKR	0.000968	0.22	8e-05	390000	141	1.64	0.00043	270000	26.9	10.9	0.0072	670000	1.6	0.478	0.00014	300000	82.1	–	Caspase Assay, average IC50 [12]: 0.0702 nM; NFkB Assay, average IC50 [12]: 0.14 nM; Kd [13]: 0.00769 nM; Kd [14]: < 0.1 nM
1D1 with heavy chain mutation S28Q (antibody, V domains shown, Point mutant of 1D1 CDR-H1) VH: QVQLVQSGAEVKKPGASVKVSCKASGYQFTYYGISWVRQAPGQGLEWMGWISTYNGNTNYARMLQGRVTMTTDTSTRTAYMELRSLRSDDTAVYYCARENYYGSGSYRGGMDVWGQGTTVTVSS VL: EIVLTQSPATLSLSPGERATLSCRASQSVSSYLAWYQQKPGQAPRLLIYDASNRATGIPARFSGSGSGTDFTLTISSLEPEDFAVYYCQQRSNWPWTFGQGTKVEIK	–	–	–	–	–	–	–	–	–	–	–	–	–	–	–	–	–	6.8	–
1D1 with heavy chain mutation Y31H (antibody, V domains shown, Point mutant of 1D1 CDR-H1) VH: QVQLVQSGAEVKKPGASVKVSCKASGYSFTHYGISWVRQAPGQGLEWMGWISTYNGNTNYARMLQGRVTMTTDTSTRTAYMELRSLRSDDTAVYYCARENYYGSGSYRGGMDVWGQGTTVTVSS VL: EIVLTQSPATLSLSPGERATLSCRASQSVSSYLAWYQQKPGQAPRLLIYDASNRATGIPARFSGSGSGTDFTLTISSLEPEDFAVYYCQQRSNWPWTFGQGTKVEIK	–	–	–	–	–	–	–	–	–	–	–	–	–	–	–	–	–	12.7	–
